Laboratory results reported in PMC3664820 (Nucleic Acids Research, 2013).

Molecular target: the molecule itself
Assay: SEC

B1: Lac repressor (first 331 residues, dimeric, without the C-terminal tetramerization domain) (domain or fragment)
chain: MKPVTLYDVAEYAGVSYQTVSRVVNQASHVSAKTREKVEAAMAELNYIPNRVAQQLAGKQSLLIGVATSSLALHAPSQIVAAIKSRADQLGASVVVSMVERSGVEACKAAVHNLLAQRVSGLIINYPLDDQDAIAVEAACTNVPALFLDVSDQTPINSIIFSHEDGTRLGVEHLVALGHQQIALLAGPLSSVSARLRLAGWHKYLTRNQIQPIAEREGDWSAMSGFQQTMQMLNEGIVPTAMLVANDQMALGAMRAITESGLRVGADISVVGYDDTEDSSCYIPPLTTIKQDFRLLGQTSVDRLLQLSQGQAVKGNQLLPVSLVKRKTTLA
binding result: binds
